Measurements from patent USRE50178 (CELLTECH R AND D, dated 2024).

Biological target: T1, CD3 antigen (human, UniProt P07766 23-207)
T1 construct: whole, on cells; also called OKT3 antigen; antigen in the T-cell receptor-CD3 complex
Test: competition with Fl-OKT3 on HPB-ALL cells, flow cytometry

B1: OKT3 gL221 / gH341 (JA178), basic grafted product (antibody, human IgG4, V domains shown)
VH: QVQLVESGGGVVQPGRSLRLSCSSSGYTFTRYTMHWVRQAPGKGLEWVAYINPSRGYTNYNQKFKDRFTISRDNSKNTLFLQMDSLRPEDTGVYFCARYYDDHYCLDYWGQGTTLTVSS
VL: DIQMTQSPSSLSASVGDRVTITCSASSSVSYMNWYQQTPGKAPKLLIYDTSKLASGVPSRFSGSGSGTDYTFTISSLQPEDIATYYCQQWSSNPFTFGQGTKLQITR
notes: Human IgG4 and human kappa constant regions; also called minimally grafted OKT3 antibody
  binding result: no binding
